Experimental data taken from patent US20240026407A1, “MODIFICATION OF SAPONINS” (GLAXOSMITHKLINE BIOLOGICALS SA, priority 2020, published 2024).

B1: 829 (protein, listed as Pseudonocardia sp.)
chain: MATVDEDLLTTLIARLDLDAKVRLLTGADFWSTPAEPAIGLRRMVLSDGPSGVRGESFDERSPSLSLPSSTALGATWDPELARRYGSTLGAEARRQHADVVLGPTINLHRTPFGGRHFEALSEDPLLTGELAAAYVEGLQAHGVAATPKHYVANDAESERFTVDNVVGERALHELYLAAFEPAVTRGGAWAVMSAYNAVNGATMSENPLLTEPLTGEWGFDGLVMSDWGAVRTTVASARAEQHLVMPGPVSTWGERLVAAVRGGEVDESVVDGKLRRLLRLAARVGALDGGPTPPPAPAPGDGATVARELAAAGSVLVRNTGELPWDASALGTVAVLGHNAALARTQGGGSATVRPAAVVAPLDGLRTALGGDRVRYRLGAQVAEGVQPFDPETVTDPVTGEPGLRAVFRAADGTALRSEHRLGASLIWMSGEIPGGAETVEVSTRWSPEPGAHRIGAAAVGHVTVSADGATVLDTEAVLTGDEGPGAAIFEAPSATAEITTDAPVDLVFRFRPSGGEAGMALFALTVGTETVVADPRAEVAAAASLAADCDVAVVVVGTNDRIESEGFDRTSLALPGHQDDLVRAVAAANPRTVVVVNSGAPVLLPWRDEVAAVLLGWFGGERFGDAVADVLLGHAEPGGRLPTTWPATGEERSVLSGRPTDGVLRYDEGVHLGHRNWLRHGETPAYPFGHGLGYTTWTLDDAVAGPWSADGVAVTVTLTNTGDRAGRQVVQAYLSRTGSDVERPARWLAGWAVVDAAPGTTTATVTVSRRAFRHRAGGVWATEPGTYELHLGFSVADTPLHATVEVVGEG
B2: 873 (protein, listed as Bifidobacterium longum)
chain: MSESTYPSVKDLTLEEKASLTSGGDAWHLQGVEAKGIPGYMITDGPHGLRKSLTSSTGETDLDNSVPATCFPPAAGLSSSWNPELIHKVGEAMAEECIQEKVAVILGPGVNIKRNPLGGRCFEYWSEDPYLAGHEAIGIVAGVQSKGVGTSLKHFAANNQETDRLRVDARISQRALREIYLPAFEHIVKTAQPWTIMCSYNRINGVHSAQNHWLLTDVLRDEWGFEGIVMSDWGADHDRVASLNAGLNLEMPPSYTDDQIVYAARDGRIAPAQLDRMAQGMIDLINKARAAMSIDGYRFDVDAHDEVAHQAAIESIVLLKNDDAILPLNADPAAARKIAVIGEFARTPRYQGGGSSHITPTKMTSFLDTLAERGIKADFAPGFTLDMESADPALESEAVETAKNADVVLMFLGLPEAAESEGFDRDTLDMPAKQIALLEQVAAANKNVVVVLSNGSVITVAPWAKNAKGILESWLLGQSGGPALADVIFGQVSPSGKLAQSIPLDINDDPSMLNWPGEEGHVDYGEGVFVGYRYYDTYGKVVDYPFGYGLSYATFEIADVAAAKTGANTATVTATVTNTSDVDASETVQVYVAPGKADVARPKHELKGFTKVFLKAGESKTVTIDLDERAFAYWSEKYNDWHVESGEYAIEVGTSSRDIAETVTVALDGDGKTQPLTEWSTYGEWEADPFGAKIVAAVAAAGEAGELLKLPDNAMMRMFLNSMPINSLPTLLGEGGKKIAQFMLDEYAKLSK
B3: 838 (protein)
chain: MSEHTYPSVKDLTLEEKASLTSGGDAWHLQGVEAKGIPGYMITDGPHGLRKSLATSTGETDLDDSVPATCFPPAAGLSSSWNPSLVRKVGEAMGEECIQEKVAVILGPGVNIKRNPLGGRCFEYWSEDPYLAGHEAVGIVEGVQSKGVGTSLKHFAVNNQETDRLRVDARVSQRALREIYLPAFEHIVKTAQPWTIMCSYNRVNGVHSAQNRWLLTDVLRDEWGFKGIVMSDWGADHDRVASVNAGLNLEMPPSGTDDEIVYAARDGRIDPAQLDRMAQGMIDLTDKARAAMSIDGYRFDVDAHDEVAHQAAVESMVLLKNEDAILPLKKDAKIAVIGEFARTPRYQGGGSSHITPTKMTSFLDTLAERGIKADFAPGFTLDLDPADSALELEAVETARDADVALLFLGLPEAAESEGFDRETLDMPAKQIELLAKVAAVNPNVAVVLSNGSVVSVAPWAGNAKGILESWLLGQAGGPALADVIFGEASPSGKLAQSIPLDINDDPSMLNWPGEEGHVDYGEGVFVGYRYYDTYDVAVDYPFGYGLSYASFEISDVHAEKTGANTASVTATVANVSDVDGAETVQVYVAPGKAEVARPSHELKGFAKVFLKAGESKTVTFDLDGRAFAYWSEKYGDWHIEAGAYGIEVGTSSRDIAATATVELEGDGKSLPLDEWSTYGEWEADPVGARVVAAVEAAGESGTLPKLPDNTMMRIFLKSMPINSMPMLMSDGGRRITAFMLDEYAKLTK
modifications: Bifidobacterium stellenboschense
B4: 808 (protein, listed as Microbacterium lemovicicum)
chain: MTTESTVATSDATSHLLPLLAQLTLAQKAAFVQGADFWATVPLPEIGVRSMTLSDGPAGVRGPRWDEREPSLNLPSGSALAASWDIDLAYRYGAAAASEARRKGVDVVLGPTINLHRSPLGGRHFECFSEDPELTAELGAAYVRGLQDNGVAATPKHYVANDSETDRFTVDVRVDERALRELYLAPFERAVEAGTWSVMSAYNSVDGVTMTENDLLETPLNSEWGFDGVVVSDWTAVRSLDAVAASQDLAMPGPAPAWADLVAAVEDGRVSEADLDRKVLRMLLLAERVGALEGAPGIEPAPVDGVAFTREAAVEGTVLLTNDGTLPLDAAALRSVAVIGHNALEARTQGGGSATVLPEHVVSPLEGLRTALPDAAVSYEIGAVVQEGVAELPLEQLQNTVTGEPGLRVSFFDADGLELFTEDRRSTALVWFGGDAPIAASSSVVLETVYTPAETGEIQLGFAGANPGRVSIDGVEVLAETPLIEGTDLGAAFLNPPSSTAAVRAEAGRPLRLRAEFALSSGGPLAGALSVTLGIAPETTDPDELIARAAAAAASADVAVVVVGTNSKVESEGYDRVDLDLPGRQDDLVRAVAATGTPTIVVVNAGSPVVLPWAGEVAAVVQGYFGGQEFGSAVAAVLTGAAEPGGRLPTTWPAALADVPVTDVAPQDGVLAYTEGIHIGYRAWLRADAAPAFPFGHGLGYTTWSWGAVQRDGDALDVTLANTGARAGKQVVQVYAERADSTVERPVRWLVGFATVRAEAGQTVTATIPLPARRFAHWSDGWQVEGGAFTLRAGASVADLPLTMEWSIGD
B5: 828 (protein, listed as Bifidobacterium pseudocatenulatum)
chain: MSEKTYPSINDLTLEEKASLTSGGDAWHLQGVEAKGIPGYMITDGPHGLRKSNSATTGEVDLNNCVPATCFPPAAGLSSSWNPELIHQVGEAMAEECIQEKVAVILGPGVNIKRNPLGGRCFEYWSEDPYLAGHEAIGIVAGVQSKGVGTSLKHFAANNQETDRLRISANISQRALREIYFPAFEHIVKEAQPWTIMCAYNCINGVHAAQDHWLLTDVLRDEWGFQGIVMSDWGADHDRVASLNAGLNLEMPPSYTDDQIVYAARDGRIQPAQLDHMAQGMIDLVNKTRAAMSIENYRFDIEAHDEVAHQAAIESMVLLKNDDAILPIAGDAKVTVIGEFARTPRYQGGGSSHITPTKMTSFLDTLTERGVDAKFAPGFTLDLEPADPALEAEAVDAAKGADVVLMFLGLPEAAESEGFDRETLDMPAKQIALLEAVAAENKNVVVVLSNGSVVTVAPWAKNAKGILESWLLGQSGGPALADVLFGKVSPSGKLAQTIPFDINDDPSTINWPGEEGHVDYGEGVFVGYRYYDTYNKAVDYPFGFGLSYATFEVSDVKAVKTGACTASVSAVVKNTSNVDAAETVQVYVAPGKADVVRPKHELKGFKKVFLKAGESAEVSFELDDRAFAYWSERFNDWHVESGEYTIEVGTSSRDIAGSAVVELDGDGKAQPLTEWSNFMEWRKDPLGSKVLEILRAEGEAGRMPVVPDNDMTRLFLDSMPINSMSVLMGADGKQIFEYMLEKYAELTK
B6: 870 (protein)
chain: MTEQTHTKAKDLDLQEEASLTSGSDSWHLQGLPDKGYEGYMITDGPYGLRKATGSDVYGSVPATCFPPTAGLASSWNPDLTYQVGQAMGEECIQEKVAVILGPGINIKRSPLGGRNFEFYSEDPVLAGHEAAGLVEGVQSKGVGTSLKHFAANNQETDRLRVSSDVDVRTLREIYLPAFEYVVKNAKPWTIMCAYNKVNGVFSSENRWLLTDVLRGEWGYQGMVMSDWGAVHNRVDALQAGLNLEMPPSRTDDQVVQAVQAGKLDKEQLDRMAQGILDLIDKARPAMSQQGYRYDVQEHNDMARRAAQESIVLLRNEDRILPLDPQKKVAVIGEFARTPRYQGGGSSHITPTEVSSALDGFKEAGMNVDFAPGFTLDEKEQDPALTRQALEVARGADTVVLFLGLPEYAESEGFDRTSMDLPEKQVALLKAVSEVNDRVVAVLSNGAVVTVADWMDKTKGLLETWLLGQEGGRAVVDVLTGAATPSGHLPETIPVRLEDNPTITSFPGEEGHSRYGEGVYVGYRYYDTFQRPVAFPFGFGLSYADFALDQVAVTKTGASSARVEVTVTNTSQVDGAQTVQVYVAPCASRVNRPSHELKAFTKVFLKAGQSSRVSMDLTERDFAYWSTAMDAWHVEAGTYRIQVGTSSRDLVAEEDLQVDGDGRFIPLNAESTMAEWRENSIGGPIMRDRIDQDGIPLPDDPNTAQLFDTMPLASVITLSGGDGNGIVADMVDRYHQALKQQGRDS
modifications: Bifidobacterium asteroides

Assays:
Assay type in all cases: biochemical, Quillaja saponaria
[1] = Experiment 5-2: screening of additional glucosidases for deglycosylation with QS-18 in crude bark extract (80%) at pH 6 and 35 deg C; details: CBE 80%, pH 6, 35 deg C, 18 hours; UV HPLC
Procedure, shortened: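 Deglycosylation of QS-18 was monitored by UV HPLC after MeCN/AcOH quench with hexanophenone. The reaction ran 18 hours at 35 deg C, shaking, combining clarified pH 6 lysate with crude bark extract neutralised to pH 6 by NaOH.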

[2] = Experiment 5-3: screening of additional glucosidases for deglycosylation with QS-18 in treated bark extract (80%) at pH 6 and 35 deg C; details: TBE 80% (QS-21 approx. 4 g/L), pH 6, 35 deg C; UV HPLC
Method: Experiment 5-1 was repeated, replacing CBE with Treated Bark Extract (TBE) at pH 6. TBE was prepared from CBE by PVPP treatment and concentration, to provide TBE with a QS-21 concentration of approximately 4 g/L. TBE was adjusted to pH 6 by dropwise addition of 2M NaOH with stirring.

[3] = Experiment 5-1: screening of additional glucosidases for deglycosylation with purified QS-18 (0.04 mg/ml) at pH 7.5 and 30 deg C; details: pH 7.5, 30 degrees C, 18 hours, LCMS/MS
Method: The 94 additional genes, together with positive control (DNA encoding SEQ ID No. 262) and negative control, were transformed, expressed, lysed and reacted in the same manner as described above for Experiment 4-1, except the reaction was incubated at 30 degrees C. for 18 hours.
Samples were analysed by LCMS/MS according to the procedure in Experiment 4-1.

Molecule	Experiment 5-2 % conv [1] [%]	Experiment 5-3 % conv [2] [%]	Experiment 5-1 % conv [3] [%]
B1	<0.5	<0.5	52.3
B2	<0.5	<0.5	43.9
B3	<0.5	<0.5	53.4
B4	<0.5	<0.5	52.0
B5	<0.5	<0.5	50.7
B6	<0.5	<0.5	49.7
